Patent US10005817

Target: PTH receptor (PTHR1) (human) (UniProt Q03431)
Test: cell-based or functional assay

Sequence of PTH receptor (PTHR1) (human) (Q03431 27-593): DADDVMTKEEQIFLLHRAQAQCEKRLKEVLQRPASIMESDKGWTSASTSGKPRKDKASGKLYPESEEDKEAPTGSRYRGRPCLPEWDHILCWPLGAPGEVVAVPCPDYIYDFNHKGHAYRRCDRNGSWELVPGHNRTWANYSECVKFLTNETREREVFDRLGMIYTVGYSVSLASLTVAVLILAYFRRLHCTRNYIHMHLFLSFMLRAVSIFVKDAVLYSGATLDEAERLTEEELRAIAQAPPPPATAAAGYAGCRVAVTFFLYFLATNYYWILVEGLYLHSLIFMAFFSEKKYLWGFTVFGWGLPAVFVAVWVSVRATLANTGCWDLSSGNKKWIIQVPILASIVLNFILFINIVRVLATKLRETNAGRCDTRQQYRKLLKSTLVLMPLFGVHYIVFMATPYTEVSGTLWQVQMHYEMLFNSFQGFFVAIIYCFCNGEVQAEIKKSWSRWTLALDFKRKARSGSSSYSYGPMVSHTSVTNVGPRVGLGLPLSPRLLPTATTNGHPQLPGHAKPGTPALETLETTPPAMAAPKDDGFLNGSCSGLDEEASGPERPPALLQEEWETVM

Substance: PTH (internal standard) (ligand)
- maximal response: 105%
